Target: actin (skeletal muscle thin filament) (mouse (endogenous in psoas myofibrils)) (UniProt P68134)
Test: cryo-EM structure

## nebulin (from UniProt E9Q1W3 1-7152) (natural protein)
  stoichiometry, nebulin simple repeat to actin subunit: 1

— article doi:10.1101/2021.10.06.463400
